T1: factor H binding protein (fHbp) peptide V1.1, N-terminally truncated, soluble (N. meningitidis, UniProt Q9JXV4 25-274)
T1 sequence: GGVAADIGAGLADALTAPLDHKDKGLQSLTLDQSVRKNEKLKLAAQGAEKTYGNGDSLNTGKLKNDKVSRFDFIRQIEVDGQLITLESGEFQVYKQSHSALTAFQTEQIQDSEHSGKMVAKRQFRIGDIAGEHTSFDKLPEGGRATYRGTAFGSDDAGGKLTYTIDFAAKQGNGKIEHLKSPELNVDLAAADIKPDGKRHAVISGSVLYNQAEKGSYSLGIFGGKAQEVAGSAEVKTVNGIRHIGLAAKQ


What was measured:
Assay in all cases: SPR
[1] = target: fHbp^V1.1:PorA^117/P1.16 (N. meningitidis) (UniProt Q9JXV4)
[2] = target: fHbp^V1.1:PorA^294/P1.16 (N. meningitidis)
[3] = target: fHbp^V1.1:PorA^309/P1.16 (N. meningitidis)
[4] = target: fHbp^V1.1:PorA^267/P1.16 (N. meningitidis) (UniProt Q9JXV4)
[5] = target: fHbp^V1.1:PorA^151/P1.16 (N. meningitidis) (UniProt Q9JXV4)
[6] = target: T1, factor H binding protein (fHbp) peptide …; details: both partners purified

Row | Molecule | Kd [1] | Kd [2] | Kd [3] | Kd [4] | Kd [5] | Kd [6]
1 | domains 6 and 7 of human complement factor H (CFH6/7) (from UniProt P08603 321-444) (domain or fragment) | 2.3 nM | 2.7 nM | 5.5 nM | 28 nM | 2.3 nM | 
2 | domains 6 and 7 of human complement factor H (CFH6/7) (domain or fragment, UniProt P08603 321-444, looked up) TLKPCDYPDIKHGGLYHENMRRPYFPVAVGKYYSYYCDEHFETPSGSYWDHIHCTQDGWSPAVPCLRKCYFPYLENGYNQNYGRKFVQGKSIDVACHPGYALPKAQTTVTCMENGWSPTPRCIR |  |  |  |  |  | 3.6 ± 0.4 nM
